Data published in paper PMC7904846 (2021).

B1: CD105 (natural protein)
chain: ETVHCDLQPVGPERGEVTYTTSQVSKGCVAQAPNAILEVHVLFLEFPTGPSQLELTLQASKQNGTWPREVLLVLSVNSSVFLHLQALGIPLHLAYNSSLVTFQEPPGVNTTELPSFPKTQILEWAAERGPITSAAELNDPQSILLRLGQAQGSLSFCMLEASQDMGRTLEWRPRTPALVRGCHLEGVAGHKEAHILRVLPGHSAGPRTVTVKVELSCAPGDLDAVLILQGPPYVSWLIDANHNMQIWTTGEYSFKIFPEKNIRGFKLPDTPQGLLGEARMLNASIVASFVELPLASIVSLHASSCGGRLQTSPAPIQTTPPKDTCSPELLMSLIQTKCADDAMTLVLKKELVAHLKCTITGLTFWDPSCEAEDRGDKFVLRSAYSSCGMQVSASMISNEAVVNILSSSSPQRKKVHCLNMDSLSFQLGLYLSPHFLQASNTIEPGQQSFVQVRVSPSVSEFLLQLDSCHLDLGPEGGTVELIQGRAAKGNCVSLLSPSPEGDPRFSFLLHFYTVPIPKTGTLSCTVALRPKTGSQDQEVHRTVFMRLNIISPDLSGCTSKGLVLPAVLGITFGAFLIGALLTAALWYIYSHTRSPSKREPVVAVAAPASSESSSTNHSIGSTQSTPCSTSSMA

Assays:
Assay in all cases: SPR
[1] = target: C68
[2] = target: C50
[3] = target: C86
[4] = target: C168
[5] = target: C59
[6] = target: B1
[7] = target: B1

Binder | Kd [1] [nM] | koff [1] [s⁻¹] | Kd [2] [nM] | koff [2] [s⁻¹] | Kd [3] [nM] | koff [3] [s⁻¹] | Kd [4] [nM] | koff [4] [s⁻¹] | Kd [5] [nM] | koff [5] [s⁻¹] | koff [6] [s⁻¹] | Kd [7] [nM]
B1 | 28.9 | 0.00171 | 16.2 | 0.00132 | 42.6 | 0.00144 | 89 | 0.00391 | 65.9 | 0.00255 |  | 
Nb C184 (VHH) VHH: QVQLQESGGGSVQAGGSLRLSCVASGYTVSRGYMGWFRQAPGKEREAVAAIRTGSGSTYYADSVKGRFTISQDNAKNTVYLQMNSLKHEDTGMYYCAASLWYGGNWQSWGSYNYWGQGTQVTVSS |  |  |  |  |  |  |  |  |  |  | 0.00188 | 44.7
